Reference: US20080311122A1 (AstraZeneca / MedImmune, published 2008)

How the values were obtained:
[1] = molecular target: T1, HMGB1 B-box peptide 108-138 (UniProt P09429 108-138, biotinylated); test: ELISA, biotinylated peptides on avidin plate
T1 peptide (looked up): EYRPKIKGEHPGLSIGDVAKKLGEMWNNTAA
Procedure: (§1) The plate was then blocked with 4% milk powder dissolved in PBS at 37° C. for 1 hour. The blocking solution was removed and replaced with human anti-HMG1 antibodies at various concentrations (see FIGS. 5A-B). […] HRP activity was detected with Sureblue HRP substrate (KPL). Plates were read at 450 nm using a Kinetic Microplate Reader (Molecular Devices). […] After washing and blocking with 1% BSA in PBS, the biotinylated peptides were individually added into the avidin coated wells and incubated for 30 min at room temperature. The serial diluted antibody G4, S16 and S6 at the initial concentration at 10 μg/ml were then transferred into the wells followed by adding mouse anti human IgG-HRP conjugate (Pierce). Detection was accomplished by adding 50 μl of tetramethylbenzidine (TMB) substrate (KPL) and the absorbance was read at […].

[2] = molecular target: T2, HMGB1 C-terminal tail peptide 188-215 (human, biotinylated); test: ELISA, biotinylated peptides on avidin plate
T2 peptide: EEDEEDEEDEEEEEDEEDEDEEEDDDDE
Procedure: as §1

B1: anti-HMG1 antibody G4 (antibody, V domains shown)
VH: EVQLLESGGGLVQPGGSLRLSCAASGFTFSWYDMTWVRQAPGKGLEWVSSISPSGGYTKYADSVKGRFTISRDNSKNTLYLQMNSLRAEDTAVYYCTTEFYDYLDVWGKGTTVTVSS
VL: DIQMTQSPGTLSLSPGEGATLSCRASQSVSSTYLAWYQQKPGQAPRLLIYEASKRATGTPARFSGSGSGTDFTLSISSLEPEDFAVYYCQHRHNWPPQWTFGQGTKVEVK
notes: also called ATCC PTA-6258
- binding result [1]: binds
- binding result [2]: binds
